Test results: patent publication US20120122214A1

Biological target: bovine serum albumin (bovine) (UniProt P02769)
Assay: flow cytometry; iPS-MP in suspension with control fluorescent particles coated with only albumin, 37° C., 90 minutes

Chain of bovine serum albumin (bovine) (P02769 25-607 limits assumed): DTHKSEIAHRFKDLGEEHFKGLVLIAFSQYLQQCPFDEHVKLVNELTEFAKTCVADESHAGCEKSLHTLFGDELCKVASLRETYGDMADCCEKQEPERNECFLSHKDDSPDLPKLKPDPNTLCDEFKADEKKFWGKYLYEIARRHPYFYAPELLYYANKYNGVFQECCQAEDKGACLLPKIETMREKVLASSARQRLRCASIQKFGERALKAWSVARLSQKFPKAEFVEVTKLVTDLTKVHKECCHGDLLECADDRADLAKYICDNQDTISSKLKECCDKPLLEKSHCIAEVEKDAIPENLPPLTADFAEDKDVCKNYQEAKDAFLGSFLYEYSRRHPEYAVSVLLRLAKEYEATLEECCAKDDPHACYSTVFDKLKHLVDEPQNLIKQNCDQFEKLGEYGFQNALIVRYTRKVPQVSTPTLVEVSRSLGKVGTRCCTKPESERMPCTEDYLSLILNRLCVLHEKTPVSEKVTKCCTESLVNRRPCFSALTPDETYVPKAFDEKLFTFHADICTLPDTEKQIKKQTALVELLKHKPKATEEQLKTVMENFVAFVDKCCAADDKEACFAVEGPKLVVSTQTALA

Question: Which results are given for “single-chain antibody (scFv) recognizing human β-amyloid peptide, derived from mouse hybridoma clone 3D6, fused to mouse IgG2a Fc portion and mouse Fc receptor (FcγRI) trans-cell membrane-cytoplasm portion, expressed on iPS-MP”?
Answer: mean fluorescence intensity: 781; percent of cells bound to the beads: 25.5%
